Measurements reported in publication PMC12243203.

Target: recombinant His-EtSERPIN1 protein (Eimeria tenella)

Substance: recombinant His-tag GgANXA2 protein (from UniProt P17785 1-339) (natural protein)
- adhesion rate to DF-1 cells of yeast cells displaying EtSERPIN1 that were pre-incubated with recombinant GgANXA2 protein (PBS group: 26.75%): 44.3%
